Laboratory results as given in the supplement of paper PMC9170038.

Tested on: MS2 coat protein
Experiment: apparent KD of MS2 coat protein; designed switch direction (-1 OFF switch, 1 ON switch): -1; higher = weaker reporter binding
Procedure, shortened: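 An oligonucleotide input, 200 uM small-molecule ligand, or no input was present during titration of SNAP-549-labelled MS2 coat protein, which was doubled from 0.7 or 1.5 nM to 3 µM. Designed RNA switches had been transcribed on Illumina chips by stalled E. coli RNA polymerase. Apparent KD per design is the median over clusters of curves fitted to normalised cluster fluorescence.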

[1] = Eterna round: R95, input ligand: FMN 200 uM
[2] = Eterna round: R95, input ligand: microRNA oligo, concentration not stated
[3] = Eterna round: R95, input ligand: none
[4] = input ligand: microRNA oligo, concentration not stated

| Sequence | apparent KD of MS2 coat protein (input ligand: FMN 200 uM) [nM] | apparent KD of MS2 coat protein (input ligand: none) [nM] | apparent KD of MS2 coat protein [2] [nM] | further results |
| --- | --- | --- | --- | --- |
| GGUCGACAUGAGGAUCACCCAUGUCAGGAUAUCGUCACUGGAGCUGCGGCUCCAGUGACGAGAAGGGAUAUAAU [E1/15-A3] (Eterna round: R97, puzzle: Exclusion 1) | 45.3 | 38.8 |  |  |
| GAAAAGGUAGGAUAUACGAAAAAAGAGGGUAGAAAAAAAACACAUGAGGAUCACCCAUGUAGAAGGACCAAAAG [salish99_ex2_r3_025] (puzzle: Exclusion 2) |  |  | 32.1 | apparent KD of MS2 coat protein [1]: 60.2 nM; apparent KD of MS2 coat protein [3]: 24.9 nM |
| UAUUAGCAAGCAACUGGGUACAUGAGGAUCACCCAUGUGCUCGUCUUAUAAGGUACUGUGACGAAAGUUACGGUACC [mod--Eli115] (Eterna round: R97, puzzle: Sensor, turn-off variant 1) | 17.9 | 17.4 |  |  |
| GCAUUGAGUGUGAGGAUAUGCUGGUCCUUGGAUCAGCAGAAGGCACAUGAGGAUCACCCAUGUGAAUACAAUGC [JL bmx4 3.13] (puzzle: Brourd's mod of Exclusion 4) |  |  | 18.9 |  |
| UGAGACUGAGGAUAUACUAGACUACAAAGUAGUCAGUGGGUACAUGAGGAUCACCCAUGUAGAAGGCAGCCUCG [Omei Repeat Sequence v1] (Eterna round: R97, puzzle: Exclusion 2) | 289 | 35.9 |  |  |
| AGUACUAUGCGAGCUGACUUGCGUAGUGCAGCAGGUGUUACAUGAGGAUCACCCAUGUCCUCAUUUGCUCGUCUUAA [Mat - Sensor v3 - Turn-off var 2 - D7] (puzzle: Sensor v3, turn-off variant 2) |  |  | 91.8 | apparent KD of MS2 coat protein [1]: 267 nM; apparent KD of MS2 coat protein [3]: 293 nM |
| UAUGGUAAAGUCAGGAUAUACGUGCAGUUUUCUAGGUAGAAGGGACAUGAGGAUCACCCAUGUAUGGUAGUGUU [Ex4 #46] (Eterna round: R97, puzzle: Brourd's mod of Exclusion 4) | 95.1 | 83.5 |  |  |
| UUUUUAGUGCUUUUUAAGUACAUGAGGAUCACCCAUGUACUUGUCUGGUGGUCCGGACAAGCUUUUUGCUCGUCUAG [Sensor v3 - turn-off variant 1 - 3] (Eterna round: R96, puzzle: Sensor v3, turn-off variant 1) | 35.6 | 35.8 |  | apparent KD of MS2 coat protein [4]: 27.4 nM |
| GACUGGACAGGAUAUGUUCUUGAGCACUUGAGGAUCACCCAAGUCAUCAAGAACUCAGGCACAGAAGGGUUUAUGC [salish99_ex5_r4_011] (Eterna round: R97, puzzle: Exclusion 5) | 19.5 | 13.7 |  |  |
| CAAUAUUACUGAGGAUAUCCUAGUGUAUUUCAGGGAGAAGGCGGACUCAACAUGAGGAUCACCCAUGUAAGACGGGUACUAGAU [Ex NG1 #17] (Eterna round: R96, puzzle: Exclusion NG 1) | 89.3 | 81.4 |  | apparent KD of MS2 coat protein [4]: 42.7 nM |
| GCGAAAGAAAACAGGUGAAACAUGAGGAUCACCCAUGUCCUCAUUUGCUCGUCUUAUAAGCUAUGCGAAAGCAUAGC [Mat - Sensor v3 - turn-off var 1 - Eli Mod - D52] (puzzle: Sensor v3, turn-off variant 1) |  |  | 391 | apparent KD of MS2 coat protein [1]: 173 nM; apparent KD of MS2 coat protein [3]: 218 nM |
| CUUAGACAUGAGGAUCACCCAUGUGAGGAUAUGAUGCAGCAGUGGUCUACGCUGUGCAUCAGAAGGCACAUAUG [mod of disincluded 3 v.3 (my top score 87 - 28% A's)] (puzzle: Exclusion 1) |  |  | 108 |  |
| GCCUAUGUGGAGGAUAUCGACUUCGAAAGAAGUCGAGAAGGCCACACAUGAGGAUCACCCAUGUGGUGCCAGGC [Omei Ex6 H13] (Eterna round: R97, puzzle: Exclusion 6) | 336 | 293 |  |  |
| UCGGCGCGAGGAUAUACGUUUGCUUUUUAGGAUCGUUGCGUACAUGAGGAUCACCCAUGUAGAAGGCGCGCCGC [Apr-15 SS2-27] (puzzle: Exclusion 2) |  |  | 12.4 |  |
| GCAUCCAUAGUGAGGAUAUACCUCUGGAUACAUAGGUAGAAGGCACAUGAGGAUCACCCAUGUUCCUAGGAUGC [Fiskers BMX 4 - 33] (puzzle: Brourd's mod of Exclusion 4) |  |  | 16.9 |  |
| CCGGAAAUGCAGGAUAUCGUAUCGGAUACGAUACGAGAAGGGUAGACAUGAGGAUCACCCAUGUGUCCUACCGG [Fiskers Ex 6 - 50] (puzzle: Exclusion 6) |  |  | 78.6 | apparent KD of MS2 coat protein [1]: 110 nM; apparent KD of MS2 coat protein [3]: 101 nM |
| CCGAGGUGGCGGUCCUAUGACAUGAGGAUCACCCAUGUACCUCGCCACGAGCUUUUUGCUCACCUUAUAAUUCUCGG [Ragequen] (puzzle: Sensor v3, turn-off variant 1) |  |  | 17.6 | apparent KD of MS2 coat protein [1]: 18.7 nM; apparent KD of MS2 coat protein [3]: 19.4 nM |
| AAAUCGGUAGAGGAUAUUGUACAGGAAACGGUGCGAGAAGGUUACACAUGAGGAUCACCCAUGUUAAAUAGCGA [EX6 #54] (Eterna round: R97, puzzle: Exclusion 6) | 17.9 | 18.4 |  |  |

| Sequence | apparent KD of MS2 coat protein (input ligand: FMN 200 uM) [nM] | apparent KD of MS2 coat protein (input ligand: none) [nM] | apparent KD of MS2 coat protein [2] [nM] | further results |
| --- | --- | --- | --- | --- |
| UGUCUACAUGAGGAUCACCCAUGUCAGGAUAUGCUCGAUAUAUGGAAACAUAUAUCGAGCAGAAGGGACUAGCG [Jieuxxlusion 5 - Jieux - Exclusion 1] (Eterna round: R97, puzzle: Exclusion 1) | 53.5 | 28.4 |  |  |
| UCUUUACAUGAGGAUCACCCAUGUCAGGAUAUCAACUUUUGGGACUUCGGAUAUAAGAUGAGAAGGGACACCGG [Eternabot (L2) Solution 53] (Eterna round: R97, puzzle: Exclusion 1) | 19.2 | 19.4 |  |  |
| CCGACCUGAGGAUAUAGCGUCCGCGACAUGAGGAUCACCCAUGUCCCUCAUAACGUAAAACUAGAAGGUAGAGUCG [Eternabot (L1) Solution 75] (Eterna round: R97, puzzle: Exclusion 5) | 29.8 | 25.7 |  |  |
| UAUUAAUGCAAGGAUAUGCUAUUAAUUUUUUUUGCAGAAGGUGCAACAUGAGGAUCACCCAUGUUUGAGGGUAU [JR_E6_Sub029] (puzzle: Exclusion 6) |  |  | 55.9 |  |
| UUUUAACAUGAGGAUCACCCAUGUGAGGAUAUCGAAAUUUAUAUUAAUAUUAAUUAAUCGAGAAGGCACAUUUU [JMF 28] (puzzle: Exclusion 1) |  |  | 97.4 |  |
| GGAAAGUGAGGAUAUGGUAAAGUAAGUAUGUAGUAAGUAAUCCAGAAGGCACAUGAGGAUCACCCAUGUAAAGG [Mat - Exclusion 4 - D101] (puzzle: Exclusion 4) |  |  | 25.4 | apparent KD of MS2 coat protein [1]: 24.8 nM; apparent KD of MS2 coat protein [3]: 26.8 nM |
| UCGCUGCGAGGAUAUACGUGCGCGCGCGCGCGCGCGCGCGUACAUGAGGAUCACCCAUGUAGAAGGCGCGCUGC [Apr-15 SS2-1] (puzzle: Exclusion 2) |  |  | 12.5 |  |
| UUUGGGCCUGUGAGGAUAUCGGGUUUGAAAGGGCCCGAGAAGGCACAUGAGGAUCACCCAUGUAAGGGCCCGGG [-32.7, -30.6 kcal, A 23%, 5a-5abis] (Eterna round: R97, puzzle: Brourd's mod of Exclusion 4) | 17.3 | 19.5 |  |  |
| GAGUUAACAUGAGGAAUAUACAUGAGGAUCACCCAUGUUAACAAAAUUUUUGCUCGUCUUAUAACAACAAUUAACUC [Alarm 3 - Jieux - Sensor, turn-off variant 1] (Eterna round: R97, puzzle: Sensor, turn-off variant 1) | 272 | 151 |  |  |
| UUAGAAUUGUUAGGAUAUUAAUUAUUGUUUAGUAUGAUCUACAUGAGGAUCACCCAUGUUAAAUAUAAGAAGGAACGUUAGAUU [JR_ExcNG2_Sub095] (Eterna round: R96, puzzle: Exclusion NG 2) | 43.7 | 51.3 |  | apparent KD of MS2 coat protein [4]: 35.6 nM |
| CACCGUUACAGAGGAUAUGAUACAUGAGGAUCACCCAUGUAAUAAAUGAGAAUUUCGAAUGUACCUCAGAAGGCUGGAACCGGC [Ostricism 79 - Jieux - Exclusion NG 2] (Eterna round: R96, puzzle: Exclusion NG 2) |  |  |  | apparent KD of MS2 coat protein [4]: 31.1 nM |
| AAGAAGAAGUAAGGAUAUGAAGAUCUGGUGGUGACAUGAGGAUCACCCAUGUGAAAACGAUGAGAUCAGAAGGUAUAAGAAGAA [AK ExNG2-3.3] (Eterna round: R96, puzzle: Exclusion NG 2) | 116 | 89.4 |  | apparent KD of MS2 coat protein [4]: 59.9 nM |
| UUUUUAGAUGAAGGAUAUACUUAACAUGAGGAUCACCCAUGUGGUGUUGUGAGUGAGUGAGUUUAGUAGAAGGUCAAUUAUUUU [JMF's solution 21] (Eterna round: R96, puzzle: Exclusion NG 2) | 187 | 260 |  | apparent KD of MS2 coat protein [4]: 151 nM |
| CUAGUAUAUCAGGAUAUGAUAGCUUAUAGCAUAUCAGAAGGGAUUACAUGAGGAUCACCCAUGUGAAGGGAUGA [eternacac ex6r4 sub17] (Eterna round: R97, puzzle: Exclusion 6) | 331 | 275 |  |  |
| CUUUUGUGAGGAUAUCAUUAGUAAAUAAAUAAAAUUACUACUGAGAAGGCACAUGAGGAUCACCCAUGUUCCUC [salish99_ex3_r3_072] (puzzle: Exclusion 4) |  |  | 31.8 |  |
| UUUUUGUCAGGAUAUGACUAGAUGCACGUUAGUGCAUCUACUUAGAAGGGACAUGAGGAUCACCCAUGUAUUCC [Bring Us a Shrubbery-12] (puzzle: Exclusion 4) |  |  | 27.3 |  |
| UGCCGUAGAGGAUAUACAUUGAAUAAGAUUCAUGUAGAACUACAUGAGGAUCACCCAUGUAGAAGGCUAUGGCU [JL-ex2-4.38 Eli mod] (Eterna round: R97, puzzle: Exclusion 2) | 29.5 | 16.9 |  |  |
